Test results taken from paper PMC5886171.

Legend:
[1] = target: Full-length plasma gelsolin Gly167Arg (human) (UniProt P06396); test: SEC-MALS; 200 µl of 4 mg/ml Gly167Arg GSN separated by gel filtration without calcium, on-line MALS, dn/dc 0.185
[2] = target: Gelsolin G2 domain (amino acids 151–266) carrying the Gly167Arg mutation (human) (UniProt P06396); test: dynamic light scattering; 1 mg/ml monomer in 20 mM HEPES pH 7.4, 0.3 M NaCl, 1 mM EDTA, incubated at 4 °C; hydrodynamic radius against time, measured at 4 °C; monomer to dimer, pseudo-first-order fit
[3] = target: Gelsolin G2 domain (amino acids 151–266) carrying the Gly167Arg mutation (human) (UniProt P06396); test: dynamic light scattering; 1 mg/ml monomer in 20 mM HEPES pH 7.4, 0.3 M NaCl, 1 mM CaCl2, incubated at 25 °C; hydrodynamic radius against time, measured at 4 °C; monomer to dimer, pseudo-first-order fit
[4] = target: Gelsolin G2 domain (amino acids 151–266) carrying the Gly167Arg mutation (human) (UniProt P06396); test: SEC; analytical gel filtration, Superdex 75 Increase 10/300 GL; 0.5 mg/ml isolated dimer or monomer incubated in 20 mM HEPES pH 7.4, 0.3 M NaCl with 1 mM CaCl2 at 4 °C, 1 mM CaCl2 at 25 °C or 1 mM EDTA at 4 °C; time course

stoichiometry N [1]	pseudo-first-order rate constant k of the conversion of monomers to dimers [2]	pseudo-first-order rate constant k of the conversion of monomers to dimers [3]	fraction of dimers at equilibrium [4]	Substance
2				Full-length plasma gelsolin Gly167Arg (from UniProt P06396 26-782) (natural protein)
	2.1 h⁻¹	0.6 h⁻¹	50%	Gelsolin G2 domain (amino acids 151–266) carrying the Gly167Arg mutation (from UniProt P06396 178-293) (domain or fragment)
